Test results as given in PMC3267196.

Assays:
Asp217 = Asp217 (UniProt position 217, GFSFLDLHGLR); test: IR (time-resolved FTIR, quoted from ref 74); settings: Unphotolysed ASR; the protonation state of Asp217 is inferred from whether it accepts a proton on M formation; cited from earlier work
Glu36 = Glu36 (UniProt position 36, GVPQYEYLVAM); test: IR (low-temperature light-induced difference FTIR); settings: 170 K, 2 mM sodium phosphate (pH 7.0) for washing liposomes

Row | Substance | pKa (Asp217) | pKa (Glu36; buffers for pH 5 and 9 not stated, Dark-adapted ASR (97% all-trans retinal), unphotolysed state versus L intermediate formed by >580 nm illumination) | pKa (Glu36; not stated for pH 5 and 9, Dark-adapted ASR (predominantly all-trans), unphotolysed state bands in the L minus ASR difference spectrum)
1 | Anabaena sensory rhodopsin (ASR), as studied by Shi et al. 2006 (Anabaena (Nostoc) sp. PCC 7120) | between 6 and 7 |  | 
2 | Anabaena sensory rhodopsin (ASR) (Anabaena (Nostoc) sp. PCC 7120) |  | between 6 and 7 | about 7
